Reference: the supplement of paper PMC9112550, “Optimization of the antimicrobial peptide Bac7 by deep mutational scanning” (BMC Biology, 2022)

These sequences were tested on Escherichia coli TOP10 (assay: shrunken log2 fold change of peptide-encoding DNA abundance (4.5 h post-induction vs induction); higher = less antimicrobial activity (less host growth inhibition)). Conditions: time post-induction: 4.5 h; library: site-saturation at positions 5, 18, 19, 20.
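Also: peptides expressed intracellularly from a pBAD plasmid library in pooled LB shake-flask culture, induced with 0.3% L-arabinose, DNA abundance read by NGS, three biological replicates, DESeq2 with apeglm shrinkage.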

Row | Sequence | shrunken log2 fold change
1 | RRIRQRPPRLPRPRPRPCMDPRP | 0.00489
2 | RRIRIRPPRLPRPRPRPWPGPRP | -0.172
3 | RRIRVRPPRLPRPRPRPYINPRP | -0.724
4 | RRIRRRPPRLPRPRPRPFKNPRP | 0.0357
5 | RRIRTRPPRLPRPRPRPIMWPRP | 0.0465
6 | RRIRLRPPRLPRPRPRPCCEPRP | 0.812
7 | RRIRHRPPRLPRPRPRPWGTPRP | -0.44
8 | RRIRQRPPRLPRPRPRPMPTPRP | 0.0311
9 | RRIRMRPPRLPRPRPRPHDEPRP | -0.0018
10 | RRIRVRPPRLPRPRPRPKMEPRP | -0.0457
11 | RRIRRRPPRLPRPRPRPPHIPRP | 0.655
12 | RRIRGRPPRLPRPRPRPSIYPRP | 0.302
13 | RRIRGRPPRLPRPRPRPGLVPRP | 0.848
14 | RRIRVRPPRLPRPRPRPYTCPRP | -0.164
15 | RRIRARPPRLPRPRPRPQPYPRP | -0.3
16 | RRIRIRPPRLPRPRPRPTYDPRP | -1.08
17 | RRIRSRPPRLPRPRPRPSRCPRP | -0.134
18 | RRIRNRPPRLPRPRPRPAYIPRP | -0.786
19 | RRIRQRPPRLPRPRPRPFTNPRP | -0.0235
20 | RRIRCRPPRLPRPRPRPTNIPRP | -0.662

Row | Sequence | shrunken log2 fold change
21 | RRIRYRPPRLPRPRPRPDYVPRP | -0.447
22 | RRIRQRPPRLPRPRPRPVDLPRP | -0.0892
23 | RRIRWRPPRLPRPRPRPVPTPRP | 0.544
24 | RRIRDRPPRLPRPRPRPARNPRP | 0.316
25 | RRIRWRPPRLPRPRPRPPVPPRP | 0.469
26 | RRIRARPPRLPRPRPRPFKHPRP | -0.27
27 | RRIRNRPPRLPRPRPRPITLPRP | -0.229
28 | RRIRDRPPRLPRPRPRPNAGPRP | 0.149
29 | RRIRGRPPRLPRPRPRPKWFPRP | 0.0384
30 | RRIRYRPPRLPRPRPRPDNGPRP | -0.00114
31 | RRIRSRPPRLPRPRPRPCLQPRP | -0.197
32 | RRIRMRPPRLPRPRPRPERQPRP | 2.84
33 | RRIRRRPPRLPRPRPRPSPDPRP | 0.608
34 | RRIRVRPPRLPRPRPRPWEWPRP | 0.0039
35 | RRIRNRPPRLPRPRPRPCWPPRP | 0.274
36 | RRIRGRPPRLPRPRPRPHNQPRP | 0.05
37 | RRIRKRPPRLPRPRPRPQVRPRP | -0.117
38 | RRIRTRPPRLPRPRPRPRVRPRP | 2.2
39 | RRIRQRPPRLPRPRPRPRKMPRP | -0.0294
40 | RRIRWRPPRLPRPRPRPMGSPRP | -0.0192

Row | Sequence | shrunken log2 fold change
41 | RRIRCRPPRLPRPRPRPWMVPRP | -0.559
42 | RRIRARPPRLPRPRPRPHMSPRP | -0.181
43 | RRIRCRPPRLPRPRPRPFQLPRP | -1.02
44 | RRIRYRPPRLPRPRPRPPSRPRP | 0.232
45 | RRIRNRPPRLPRPRPRPISEPRP | 0.00895
46 | RRIRERPPRLPRPRPRPTDVPRP | -0.0755
47 | RRIRMRPPRLPRPRPRPHFWPRP | 0.774
48 | RRIRARPPRLPRPRPRPFLNPRP | -0.248
49 | RRIRLRPPRLPRPRPRPLWWPRP | 0.531
50 | RRIRERPPRLPRPRPRPWMAPRP | -0.0227
51 | RRIRNRPPRLPRPRPRPGCPPRP | -0.055
52 | RRIRWRPPRLPRPRPRPADVPRP | -0.305
53 | RRIRYRPPRLPRPRPRPADAPRP | 0.0896
54 | RRIRHRPPRLPRPRPRPILSPRP | -0.0163
55 | RRIRRRPPRLPRPRPRPETVPRP | -0.11
56 | RRIRSRPPRLPRPRPRPNMLPRP | -0.323
57 | RRIRKRPPRLPRPRPRPITNPRP | 0.133
58 | RRIRGRPPRLPRPRPRPIKWPRP | 0.434
59 | RRIRFRPPRLPRPRPRPMEDPRP | -0.015
60 | RRIRKRPPRLPRPRPRPYCGPRP | 0.0176
